Assay [1] deals with Wildtype, full-length human Gαi1 (human, UniProt P63096 1-354). As to the kind of experiment: SPR. (In SPR one partner is held on a chip, and binding of the other changes the refractive index at the surface.)
The target of assay [2] is Gαi1(R178M/A326S) (human, UniProt P63096 1-354, R178M | A326S). As to the kind of experiment: SPR.
Chain of Gαi1(R178M/A326S) (P63096 whole entry R178M/A326S): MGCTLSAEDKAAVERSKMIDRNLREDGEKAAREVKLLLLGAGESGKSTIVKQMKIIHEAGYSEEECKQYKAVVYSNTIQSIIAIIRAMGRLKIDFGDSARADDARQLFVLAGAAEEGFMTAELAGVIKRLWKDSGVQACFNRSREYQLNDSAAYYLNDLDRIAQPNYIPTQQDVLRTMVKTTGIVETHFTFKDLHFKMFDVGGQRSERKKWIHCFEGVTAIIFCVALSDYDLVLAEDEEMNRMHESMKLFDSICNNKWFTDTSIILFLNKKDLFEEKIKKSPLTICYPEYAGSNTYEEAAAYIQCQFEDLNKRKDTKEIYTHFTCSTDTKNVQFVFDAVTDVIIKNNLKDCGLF

Chain of Wildtype, full-length human Gαi1 (P63096 whole entry): as the sequence (P63096 whole entry R178M/A326S) above, with M178R, S326A counted along it

B1: RGS16 (natural protein, human, UniProt O15492 1-202, looked up)
chain: MCRTLAAFPTTCLERAKEFKTRLGIFLHKSELGCDTGSTGKFEWGSKHSKENRNFSEDVLGWRESFDLLLSSKNGVAAFHAFLKTEFSEENLEFWLACEEFKKIRSATKLASRAHQIFEEFICSEAPKEVNIDHETHELTRMNLQTATATCFDAAQGKTRTLMEKDSYPRFLKSPAYRDLAAQASAASATLSSCSLDEPSHT
For the molecule B1, the Kd (usually the equilibrium constant for the complex coming apart) in assay [1] worked out at 124 nM; in assay [2], 115 nM.

The values above are taken from paper PMC2795102 (Journal of biomolecular screening, 2009).
